{"source": "paper PMC5632138", "about": "(Journal of molecular biology, 2017)", "binders": {"B1": {"name": "ETV4^337–436 (DNA-binding domain), biotinylated ligand for biolayer interferometry (domain or fragment, UniProt P43268 337-436, looked up)", "chain": "RRGALQLWQFLVALLDDPTNAHFIAWTGRGMEFKLIEPEEVARLWGIQKNRPAMNYDKLSRSLRYYYEKGIMQKVAGERYVYKFVCEPEALFSLAFPDNQ", "modifications": "biotin (biotinylated; D-biotin added at the induction point)"}, "B2": {"name": "ETV4^337–436 (DNA-binding domain), from pET28 (domain or fragment, UniProt P43268 337-436, looked up)", "chain": "B1 chain"}, "B3": {"name": "27-bp consensus ETS duplex (dsDNA)", "DNA 1": "TCGACGGCCAAGCCGGAAGTGAGTGCC", "DNA 2": "TCGAGGCACTCACTTCCGGCTTGGCCG"}}, "key": {"[1]": {"target": "T1, MED25 ACID Ile521Glu (analyte) (human, UniProt Q71SY5 391-553, Ile521Glu)", "T1 sequence (looked up)": "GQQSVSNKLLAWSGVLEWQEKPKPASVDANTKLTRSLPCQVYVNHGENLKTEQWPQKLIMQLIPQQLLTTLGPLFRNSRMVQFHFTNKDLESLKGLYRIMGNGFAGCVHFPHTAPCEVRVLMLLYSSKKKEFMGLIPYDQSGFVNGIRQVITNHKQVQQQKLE", "assay": "BLI"}, "[2]": {"target": "T2, MED25 ACID His474Glu (analyte) (human, UniProt Q71SY5 391-553, His474Glu)", "T2 sequence (looked up)": "T1 sequence (looked up) with H84E, E131I", "assay": "BLI"}, "[3]": {"target": "T3, MED25 ACID Met523Glu (analyte) (human, UniProt Q71SY5 391-553, Met523Glu)", "T3 sequence (looked up)": "T1 sequence (looked up) with E131I, M133E", "assay": "BLI"}, "[4]": {"target": "T4, MED25 ACID Tyr487Ser (analyte) (human, UniProt Q71SY5 391-553, Tyr487Ser)", "T4 sequence (looked up)": "T1 sequence (looked up) with Y97S, E131I", "assay": "BLI"}, "[5]": {"target": "T5, MED25 ACID Gln430Glu (analyte) (human, UniProt Q71SY5 391-553, Gln430Glu)", "T5 sequence (looked up)": "T1 sequence (looked up) with Q40E, E131I", "assay": "BLI"}, "[6]": {"target": "T6, MED25 ACID Lys518Ala/Lys519Ala/Lys520Ala (analyte) (human, UniProt Q71SY5 391-553, Lys518Ala | Lys519Ala | Lys520Ala)", "T6 sequence (looked up)": "T1 sequence (looked up) with K128A, K129A, K130A, E131I", "assay": "BLI"}, "[7]": {"target": "T7, MED25 ACID Leu514Glu (analyte) (human, UniProt Q71SY5 391-553, Leu514Glu)", "T7 sequence (looked up)": "T1 sequence (looked up) with L124E, E131I", "assay": "BLI"}, "[8]": {"target": "T8, MED25 ACID Arg466Glu (analyte) (human, UniProt Q71SY5 391-553, Arg466Glu)", "T8 sequence (looked up)": "T1 sequence (looked up) with R76E, E131I", "assay": "BLI"}, "[9]": {"target": "T9, MED25 ACID (residues 391–553), from pET28 (human, UniProt Q71SY5 391-553)", "T9 sequence (looked up)": "T1 sequence (looked up) with E131I", "assay": "NMR titration"}, "ETV4 WT;MED25 ACID": {"target": "ETV4 WT;MED25 ACID (human?;human, UniProt P43268;Q71SY5 1-484;391-553, |)", "sequence (P43268 whole entry, one chain of several)": "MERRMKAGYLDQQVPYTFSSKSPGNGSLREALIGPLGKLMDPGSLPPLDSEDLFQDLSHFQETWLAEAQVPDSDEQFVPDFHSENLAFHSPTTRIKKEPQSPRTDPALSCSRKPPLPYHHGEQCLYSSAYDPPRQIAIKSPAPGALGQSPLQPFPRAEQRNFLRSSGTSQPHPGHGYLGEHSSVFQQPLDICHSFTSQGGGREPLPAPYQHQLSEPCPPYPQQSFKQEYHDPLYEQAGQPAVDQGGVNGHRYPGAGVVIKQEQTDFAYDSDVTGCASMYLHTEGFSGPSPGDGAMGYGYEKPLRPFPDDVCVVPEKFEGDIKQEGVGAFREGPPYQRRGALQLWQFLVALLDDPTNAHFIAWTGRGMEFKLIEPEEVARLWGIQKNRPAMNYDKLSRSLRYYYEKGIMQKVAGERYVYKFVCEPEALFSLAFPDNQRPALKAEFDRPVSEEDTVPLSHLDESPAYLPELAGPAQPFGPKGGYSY", "assay": "EMSA"}, "ETV4 Phe428Ala/Phe432Ala": {"target": "ETV4 Phe428Ala/Phe432Ala (UniProt P43268 1-484, F428A;F432A)", "sequence (P43268 whole entry F428A/F432A)": "as the sequence (P43268 whole entry, one chain of several) above, with F428A, F432A counted along it", "assay": "EMSA"}, "ETV4 Leu430Ala": {"target": "ETV4 Leu430Ala (UniProt P43268 1-484, L430A)", "sequence (P43268 whole entry L430A)": "as the sequence (P43268 whole entry, one chain of several) above, with L430A counted along it", "assay": "EMSA"}}, "note": "Positions count from the first letter of the chain named."}
{"binder": "B1", "values": [{"measurement": "binding result", "setting": "[1]", "result": "binds"}, {"measurement": "binding result", "setting": "[2]", "result": "binds"}, {"measurement": "binding result", "setting": "[3]", "result": "binds"}, {"measurement": "binding result", "setting": "[4]", "result": "binds"}, {"measurement": "binding result", "setting": "[5]", "result": "binds"}, {"measurement": "binding result", "setting": "[6]", "result": "binds"}, {"measurement": "binding result", "setting": "[7]", "result": "binds"}, {"measurement": "binding result", "setting": "[8]", "result": "binds"}]}
{"binder": "B2", "values": [{"measurement": "binding result", "setting": "[9]", "result": "binds"}]}
{"binder": "B3", "values": [{"measurement": "Kd", "setting": "ETV4 WT;MED25 ACID", "result": "2.1 ± 0.5", "unit": "nM"}, {"measurement": "Kd", "setting": "ETV4 Phe428Ala/Phe432Ala", "result": "3.7 ± 0.8", "unit": "nM"}, {"measurement": "Kd", "setting": "ETV4 Leu430Ala", "result": "1.9 ± 0.4", "unit": "nM"}]}
